Test results from US20240425606A1, “ANTI-IL-11RA ANTIBODIES” (Lassen Therapeutics 1, Inc., priority 2021, published 2024).
Substitutions are numbered along the chain they refer to. Names may count otherwise. “Also recorded” adds a separate entry of the source. Each block holds one molecule with its values, some of them ahead of it.

How the values were obtained:
[1] = tested on: type VI collagen formation (PRO-C6) in fibrotic human PCLS; assay: Fibrotic human precision-cut lung slice (PCLS) model, PRO-C6 biomarker of ECM remodeling; type: cell-based; settings: 48 hours; for effects on ECM remodeling: fibrotic human PCLS; for median levels of PRO-C6 compared to the no treatment (media) control: pooled data all donors and regions, nintedanib 1 μM, isotype control 30 μg/mL
Experimental: Studies were performed to evaluate the effect of the mAb5 antibody on biomarkers reflecting ECM remodeling in a fibrotic human precision-cut lung slice (PCLS) model. The anti-fibrotic effect was investigated at three different concentrations in human ex vivo lung tissue slices prepared from pulmonary fibrosis patients.
Tissue slices were prepared from the subpleural and central region of the fibrotic lung from two human end-stage donors with pulmonary fibrosis (IPF and secondary fibrosis) (see, for example, Hess et al., Toxicol In Vitro. 32:347-61, 2016). For both donors, lung tissue samples from two different regional areas (subpleural and central) were used to generate tissue cores used for PCLS. Adjacent cores were used to achieve serial PCLS for the analysis of one treatment as compared to medium treated PCLS from the same cores. This enables the comparison of densely packed fibrotic areas with fibrotic foci with less affected areas. To ensure the fibrotic status, clinical/demographic information for each patient is provided.
Each treatment was tested with three replicates for each lung region and for each donor.
Preparation and incubation of precision-cut lung slices. Lung lobes were canuled and filled with 37° C. warm 2% low-melting agarose/medium solution. Filled lobes were cooled on ice to polymerise agarose. Tissue cores with a diameter of 8 mm were prepared and cut into approximately 300 μm thick slices using a microtome (Krumdieck tissue slicer, Alabama Research and Development, Muniford, AL, USA or Vibratome OTS-5000, Science Services GmbH, Munich) in Earle's Balanced Salts Solution (EBSS). Tissue slices were incubated in Dulbecco's modified Eagle's medium/nutrient mixture F-12 Ham (DMEM) with L-glutamine and 15 mM HEPES without phenol red. Tissue slices were transferred into petri dishes and washed with DMEM for 2 hours. Medium was changed four times every 30 minutes in order to remove cell debris.
Two PCLS per well were left over night in 500 μL DMEM in 24-well plates for a final washing step. Next day, PCLS were treated with experimental treatments or controls (see Table E5) in 250 μl DMEM/F-12 culture medium for 48 hours under normal cell culture conditions (37° C., 5% CO2). Medium contained 100 units/mL penicillin and 100 μg/mL streptomycin and was not supplemented with fetal calf serum.
After incubation for 48 hours, supernatants were collected, proteinase inhibitor cocktail (0.2%) was added and samples were frozen to −80° C. Additionally, the two PCLS from each well were transferred to a 2 mL safe-lock tube, snap-frozen in liquid nitrogen immediately, and stored at −80° C. Samples from the three replicates for each condition were not pooled.
Extracellular matrix remodeling evaluation. Biomarkers that reflect ECM remodeling were assessed in supernatant by Nordic Bioscience using the following competitive ELISA: PRO-C6 (C-terminal of type VI collagen C5 domain released as type VI collagen is incorporated into the matrix; measured on mesoscale platform [hsPRO-C6]): Reflects type VI collagen formation. Type VI collagen is a beaded filament collagen mainly found in the interface between the interstitial matrix and the basement membrane.
Statistics. […] Pooled data are presented as percentage of the “no treatment” control, calculated for individual regions and donors. Statistical significant differences were evaluated on pooled data by Kruskal-Wallis with Dunn's multiple comparisons test, comparing to the “no treatment” control. […]

[2] = target: T1, IL-11R on STAT3 Reporter (Luciferase)-HEK293 cells (UniProt Q14626 23-422); assay: cell-based or functional assay
T1 sequence (looked up): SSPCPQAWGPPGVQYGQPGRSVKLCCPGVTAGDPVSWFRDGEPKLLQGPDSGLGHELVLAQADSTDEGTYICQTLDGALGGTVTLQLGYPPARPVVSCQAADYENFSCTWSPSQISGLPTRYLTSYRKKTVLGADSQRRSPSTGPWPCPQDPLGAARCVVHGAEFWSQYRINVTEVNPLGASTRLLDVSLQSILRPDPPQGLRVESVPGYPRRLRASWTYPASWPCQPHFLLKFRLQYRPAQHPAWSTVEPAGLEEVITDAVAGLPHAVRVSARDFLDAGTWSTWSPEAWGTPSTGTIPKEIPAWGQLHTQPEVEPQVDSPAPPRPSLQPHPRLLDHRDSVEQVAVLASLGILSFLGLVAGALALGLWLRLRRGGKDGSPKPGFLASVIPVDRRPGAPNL

[3] = target: T2, human IL-11Rα (human, UniProt Q14626 23-363, limits assumed); assay: BLI (Octet RED96e), mAb on protein G biosensors, hIL-11Rα in solution
T2 construct: Protein coated on ELISA plates and used in solution for BLI; also called hIL-11Rα; hIL-11R
T2 sequence: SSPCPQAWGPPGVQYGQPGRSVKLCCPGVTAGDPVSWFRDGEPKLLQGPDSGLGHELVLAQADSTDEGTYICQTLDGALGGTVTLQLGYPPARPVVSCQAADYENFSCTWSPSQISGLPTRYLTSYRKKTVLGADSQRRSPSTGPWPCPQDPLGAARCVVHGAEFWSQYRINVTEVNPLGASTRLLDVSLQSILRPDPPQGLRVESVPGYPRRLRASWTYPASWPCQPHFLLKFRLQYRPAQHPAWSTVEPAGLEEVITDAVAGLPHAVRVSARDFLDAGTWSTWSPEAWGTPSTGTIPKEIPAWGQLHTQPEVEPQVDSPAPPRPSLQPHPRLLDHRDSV
Experimental: (§1) Association was carried out in the presence of a 2-fold dilution series of hIL-11Rα and was allowed to proceed for 120 seconds; dissociation was measured for 300 to 1200 seconds.

[4] = target: T2, human IL-11Rα; assay: competitive ELISA, IL-11R coated on plate; competitor: biotinylated 8E2 (0.1 µg/mL)
Experimental: (§2) Relative binding activity of the antibodies was tested by competitive ELISA using biotinylated mAbs 8E2 or TS7. Antibodies 8E2 and TS7 were biotinylated using sulfo-NHS Biotin (Thermo Fisher) per the manufacturer's instructions. IL-11R was coated onto ELISA plates (Nunc, MaxiSorp) at 2 μg/mL in PBS, and plates were blocked with 2% BSA in PBS. After washing the plate with water, antibodies to be tested were titrated across the plate in a final volume of 90 μL followed by addition of 10 μL of biotinylated 8E2 or biotinylated TS7, as indicated in Table E1 (0.1 μg/mL final concentration) to each well. Plates were incubated for 2 hours on a plate-shaker, followed by washing and addition of 100 μL/well of streptavidin-HRP (Jackson ImmunoResearch, 1/1000 dilution). After a further 1 hour incubation, plates were washed, developed with Ultra-TMB HRP substrate (Thermo Fisher), and stopped by the addition of 50 μL/well of 2 M sulfuric acid. Plates were read at 450 nm on an iD5 plate reader (Molecular Devices).

[5] = target: T2, human IL-11Rα; assay: competitive ELISA, IL-11R coated on plate; competitor: biotinylated TS7 (0.1 µg/mL)
Experimental: as §2

[6] = target: T2, human IL-11Rα; assay: BLI (Octet RED96e), mAb on anti-human constant domain (AHC) biosensors, hIL-11R in solution
From the text: (§3) A further series of antibodies were designed in which the residue at Kabat position 31 of the heavy chain was varied (mAbs 16-32). In this case an alternate biolayer interferometry assay was used to initially rank the antibodies compared to mAb5, the closest relative in sequence to mAbs 16-32. MAbs were loaded onto anti-human constant domain (AHC) biosensors (FortdBio) in 10× kinetics buffer consisting of PBS, 0.1% BSA, 0.02% Tween 20 for 120 s to achieve a spectral shift value of 0.8 to 1.2 nm. Association was carried out in the presence of 2-fold dilution series of hIL-1 IR and was allowed to proceed for 120 s. Dilution series started 10 nM. The dissociation in 10× kinetics buffer for 1200 s. Binding kinetic measurements were taken on an Octet RED96e instrument.

[7] = target: T3, hIL-1 IR (Homo sapiens, UniProt Q14626); assay: Alternate biolayer interferometry assay (AHC biosensors) ranking mAbs 16-32 against mAb5; type: binding; settings: for ka: association 120 s; for kd: dissociation 1200 s
T3 sequence (Q14626 23-422): T1 sequence (looked up)
From the text: as §3

[8] = target: T3, hIL-1 IR; assay: as above; type: binding; settings: compared to mAb5
[9] = target: T4, hIL-11Rα (Homo sapiens, UniProt Q14626); assay: Kinetic binding analysis by biolayer interferometry (protein G biosensors, Octet RED96e)
T4 sequence (Q14626 23-422): T1 sequence (looked up)
Experimental: as §1

[10] = tested on: IL-11 signaling in STAT3 Reporter (Luciferase)—HEK293 cell line; assay: Cell-based STAT3 reporter (luciferase) assay for inhibiting IL-11 signaling; parameters: species or system human; settings: compared with TS7 and 8E2
Experimental: Further testing of the lead mAbs was carried out using a cell-based reporter assay. IL-11 is reported to signal through the STAT3 and ERK pathways. Therefore, a STAT3 reporter cell line in which firefly luciferase gene expression is driven by STAT3 response elements located upstream of a minimal TATA promoter was selected to analyze mAb functional activity. In these cells, IL-11 can activate the endogenous STAT3 allowing it to bind to the STAT3 response elements, inducing transcription of the luciferase reporter gene and resulting in readily detectable luciferase expression. Antibodies to IL-11R which block IL-11 signaling should inhibit expression of IL-11 driven luciferase in these cells.
The STAT3 Reporter (Luciferase)—HEK293 cell line (BPS Bioscience, catalog #79800-P) was grown, passaged, and assayed as per manufacturer's protocols. Cells were added at 25,000 cells per well in a 96-well microtiter dish and incubated at 37° C. for 30-45 min. in 5% CO2 humidified air. Anti-IL-11R mAbs were added as a 3-fold dilution series in duplicate columns or rows, and plates were returned to the incubator for an additional 1 h at 37° C. after which 40 ng/mL IL-11 was added to each well to initiate the signal transduction cascade and luciferase production. Plates were incubated for 18-24 hours at 37° C. and luciferase was detected using a One-Step Luciferase Assay System (BPS Bioscience, cat. no. 60690-1) as per manufacturer's instructions.

Molecule: COC(=O)c1ccc2c(c1)NC(=O)/C2=C(\Nc1ccc(N(C)C(=O)CN2CCN(C)CC2)cc1)c1ccccc1 [nintedanib, Nintedanib, reference compound]
effects on ECM remodeling [1]: ECM remodeling could be reduced
median levels of PRO-C6 compared to the no treatment (media) control ([1]; mAb5 0.3, 3.0, 30 μg/mL): decreased

IC50, STAT3 luciferase reporter assay (HEK293), inhibiting IL-11, Assay 1 [2]: 0.16 µg/mL
IC50, STAT3 luciferase reporter assay (HEK293), inhibiting IL-11, Assay 2 [2]: 0.18 µg/mL
IC50, STAT3 luciferase reporter assay (HEK293), inhibiting IL-11, Mean [2]: 0.17 µg/mL
Kd [3]: < 0.001 nM
koff [3]: < 1e-07 s⁻¹
kon [3]: 63700 M⁻¹ s⁻¹
IC50 [4]: 1.4 µg/mL
IC50 [5]: 2.1 µg/mL
Kd [6]: 0.05 nM
koff [6]: 2.5e-05 s⁻¹
kon [6]: 490000 M⁻¹ s⁻¹
B1: mAb5 (antibody, V domains shown)
VH: EVQLLESGGGLVQPGGSLRLSCAASGFTFSWYSMTWVRQAPGKGLEWVSSIVPYGDLTQYADSVKGRFTISRDNSKNTLYLQMNSLRAEDTAVYYCAKGPGWGSFDLWGRGTLVTVSS
VL: DIQMTQSPSSLSASVGDRVTITCQASQDINNYLNWYQQKPGKAPKLLIYDASNLQTGVPSRFSGSGSGTDFTFTISSLQPEDIATYYCQQHESQSPTFGPGTKVDIK
notes: Expressed as human IgG4 (S228P EU); also called mAb5 IL11RA Ab

ka [7]: 750000 M⁻¹ s⁻¹
qualitative assessment ([7]; compared to mAb5): improved/
kd [7]: off-scale
potency by more detailed kinetic measurements (in words) [8]: further improved potency
B2: mAb21: anti-IL-11Rα antibody; VH SEQ ID NO: 233, VL SEQ ID NO: 234; heavy chain Kabat position 31 variant of mAb5 (antibody, V domains shown)
VH: B1 VH with W31H
VL: B1 VL
modifications: mAb21 VH Chain; mAb21 VL Chain
notes: anti-IL-11Rα antibody; heavy chain Kabat position 31 variant of mAb5

binding affinity (in words) ([9]; beyond the ability of the instrument to determine an accurate off-rate (kd)): very high binding affinity
ka ([9]; protein G biosensors, association 120 seconds): 63700 M⁻¹ s⁻¹
kd ([9]; protein G biosensors, dissociation 300 to 1200 seconds): <1e-07 s⁻¹
ka [7]: 490000 M⁻¹ s⁻¹
kd [7]: 2.5e-05 s⁻¹
B3: mAb5: anti-IL-11Rα antibody; VH SEQ ID NO: 201, VL SEQ ID NO: 202; human IgG4 (S228P), kappa light chain (antibody, V domains shown)
VH: B1 VH
VL: B1 VL
modifications: human IgG4 S228P and kappa constant regions; mAb5 VH Chain; mAb5 VL Chain
notes: anti-IL-11Rα antibody; human IgG4 (S228P), kappa light chain
relative potency at inhibiting IL-11 signaling (in words) [10]: more potent at inhibiting IL-11 signaling than either of TS7 or 8E2
effects on ECM remodeling [1]: better effects on ECM remodeling relative to the approved therapy nintedanib
dose dependence of PRO-C6 reduction ([1]; mAb5 0.3, 3.0, 30 μg/mL): dose-dependent manner; also recorded: dose-related reductions
median levels of PRO-C6 compared to the no treatment (media) control ([1]; mAb5 0.3, 3.0, 30 μg/mL): decreased
